Results on 2 proteins are retold here after PMC7611853 (Nature cell biology, 2021).

Changes are numbered by the printed parent chain. Numbers in names are those of the source.

Data set [1] deals with the molecule itself. Description: negative-stain TEM, circular dichroism and amyloid-dye. A general note: Circular dichroism is the unequal absorption of left and right circularly polarised light.
The data set “centrifugation” deals with the molecule itself. The experiment in a line: centrifugation.

B1: Cdc19^WT (wild-type pyruvate kinase Cdc19, strep-tagged, recombinant) (enzyme, S. cerevisiae, UniProt P00549 1-500, looked up)
chain: MSRLERLTSLNVVAGSDLRRTSIIGTIGPKTNNPETLVALRKAGLNIVRMNFSHGSYEYHKSVIDNARKSEELYPGRPLAIALDTKGPEIRTGTTTNDVDYPIPPNHEMIFTTDDKYAKACDDKIMYVDYKNITKVISAGRIIYVDDGVLSFQVLEVVDDKTLKVKALNAGKICSHKGVNLPGTDVDLPALSEKDKEDLRFGVKNGVHMVFASFIRTANDVLTIREVLGEQGKDVKIIVKIENQQGVNNFDEILKVTDGVMVARGDLGIEIPAPEVLAVQKKLIAKSNLAGKPVICATQMLESMTYNPRPTRAEVSDVGNAILDGADCVMLSGETAKGNYPINAVTTMAETAVIAEQAIAYLPNYDDMRNCTPKPTSTTETVAASAVAAVFEQKAKAIIVLSTSGTTPRLVSKYRPNCPIILVTRCPRAARFSHLYRGVFPFVFEKEPVSDWTDDVEARINFGIEKAKEFGILKKGDTYVSIQGFKAGAGHSNTLQVSTV
In the case of B1, the binding result in data set [1] is reported as “binds”.

B2: Cdc19^ΔFBP (Cdc19 point-mutant T403E unable to bind FBP, strep-tagged, recombinant) (enzyme, S. cerevisiae, UniProt P00549 1-500, looked up)
chain: B1 chain with T403E
For the protein B2, in the data set “centrifugation”, the binding result is listed as “binds”.
